Data reported in patent publication US20220072098A1 (priority 2012, published 2022).

Assay: Tissue distribution of trypsinogen-AlexaFluor-488 after i.v. injection
Type: in vivo, mice
Details: 200 μg i.v., 30 min
Experimental: Trypsinogen—AlexaFluor®-488 was injected i.v. in its free form or encapsulated in the bolavesicles. At 30 min after the injection, mice were anesthetized by Xylazine-Ketamine mixture and blood was withdrawn through cardiac puncture, the mouse was perfused with 10 ml PBS and tissues were dissected out. The dissected tissues were attached to labeled paper stripes, frozen in isopentane cooled over liquid nitrogen, and stored at −80° C. The selected tissues were cryosectioned and the fluorescence of the sections was analyzed using confocal fluorescent microscopy. All images were acquired using the same imaging settings and were not corrected or modified. Fluorescence of slices from different organs was quantified by imaging software after subtracting background fluorescence. In effect, for quantifying the fluorescence in the tissue, the average fluorescence obtained from the control mice, which were injected with PBS instead of the fluorescent material was subtracted from the fluorescence values obtained from the same tissue taken from animals that received Trypsinogen-AlexaFluor®-488. At least 4 slices from each organ of each mouse were used for the quantitative analysis and each group contained 4-5 mice.
Prior to delivering GDNF to the brain, pilot experiment, in vivo, studies were carried out with the model protein—trypsinogen, which was labeled for this purpose with AlexaFluor®-488. […]

B1: free labeled protein: free trypsinogen labeled with AlexaFluor-488 (protein, UniProt P00760 18-246, looked up)
pro-form: VDDDDKIVGGYTCGANTVPYQVSLNSGYHFCGGSLINSQWVVSAAHCYKSGIQVRLGEDNINVVEGNEQFISASKSIVHPSYNSNTLNNDIMLIKLKSAASLNSRVASISLPTSCASAGTQCLISGWGNTKSSGTSYPDVLKCLKAPILSDSSCKSAYPGQITSNMFCAGYLEGGKDSCQGDSGGPVVCSGKLQGIVSWGSGCAQKNKPGVYTKVCNYVSWIKQTIASN
modifications: pro-form AlexaFluor-488 label
labeled trypsinogen fluorescence in kidney: high fluorescence
